Laboratory results published in patent US20220389097A1 (Genentech, published 2022).
Residue numbers refer to the chain shown, from its start. Values belong to the binder of their own block, whether it stands above or below them. Where no end group is shown, it is not given here.

Assays:
[1] = molecular target: T1, soluble human TREM2 (sTREM2) (human, UniProt Q9NZC2 19-157); experiment: sandwich ELISA: test antibody coated as capture, sTREM2 from BMDM culture supernatant, biotinylated 3.17A9 as detection; normalised to 1.16B8
T1 construct: also called soluble TREM2; TREM2 ectodomain
T1 sequence: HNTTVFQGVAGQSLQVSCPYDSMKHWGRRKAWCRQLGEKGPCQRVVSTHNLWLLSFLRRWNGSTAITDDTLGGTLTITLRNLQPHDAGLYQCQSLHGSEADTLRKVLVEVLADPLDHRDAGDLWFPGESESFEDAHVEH
Excerpt: For example, as shown in an Example 11 herein, the human TREM2 ELISA assay measured binding of antibodies to sTREM2 by coating onto plate wells the antibody to be tested as capture reagents and with biotinylated IgV-reactive monoclonal antibody 3.17A9 used as the detection reagent. Control antibody 1.16B8 was used as a positive control antibody to establish the standard for sTREM2 binding.
A human TREM2 ELISA assay was used to measure binding of more than forty antibodies to soluble TREM2 (sTREM2) as follows: test anti-hTREM2 antibodies were coated onto plate wells as capture reagents and a biotinylated IgV-reactive monoclonal antibody, 3.17A9, was used as the detection reagent. Antibody 1.16B8 was used as a control antibody to establish the standard for sTREM2 binding. Plates coated with test or control antibody were incubated with diluted culture supernatant from bone marrow-derived macrophage (BMDM) cultures from transgenic mice expressing hTREM2. sTREM2 is constitutively produced by the BMDM cultures expressing hTREM2 and shed into the culture supernatant. Measurements were recorded at 450 nm for detection and 570 nm for background. The 3.17A9/1.16B8 antibody pair was selected over reagents provided in the R&D Systems kit as the commercial reagents were not compatible with sTREM2 detection of some of the antibodies tested. Control antibody 1.16B8 light chain sequence is shown in SEQ ID NO: 170, and its heavy chain sequence is shown in SEQ ID NO: 171.

[2] = molecular target: T2, human TREM2 on cells (human, UniProt Q9NZC2 19-230); experiment: cell-based or functional assay
T2 sequence: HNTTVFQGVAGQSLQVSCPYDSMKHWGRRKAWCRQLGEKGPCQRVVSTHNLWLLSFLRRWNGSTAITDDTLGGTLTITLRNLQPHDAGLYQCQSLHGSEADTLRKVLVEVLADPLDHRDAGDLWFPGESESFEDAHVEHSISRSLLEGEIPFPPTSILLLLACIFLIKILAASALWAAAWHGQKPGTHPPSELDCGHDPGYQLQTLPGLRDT

[3] = molecular target: T3, 159-175 (also: biotinylated (site not given here)); experiment: peptide ELISA with IgG, grey-scale heat map of OD650nm
T3 construct: member of the group m13
T3 peptide: ISRSLLEGEIPFPPTSI

[4] = molecular target: T4, soluble monomeric human TREM2 (human, UniProt Q9NZC2 19-174, limits assumed); experiment: SPR (Biacore T200), 37 C; IgG on anti-CH1 chip, soluble monomeric TREM2
T4 construct: Not the same as shed sTREM2; also called soluble monomeric TREM2
T4 sequence: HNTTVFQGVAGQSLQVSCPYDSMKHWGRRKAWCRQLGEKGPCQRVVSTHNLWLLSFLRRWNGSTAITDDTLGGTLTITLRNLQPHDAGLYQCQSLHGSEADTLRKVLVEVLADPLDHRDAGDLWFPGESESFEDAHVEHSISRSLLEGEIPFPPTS

[5] = molecular target: T5, cynomolgus TREM2 stalk antigen (cynomolgus monkey, UniProt A0A2K5UY34 159-204, not fully specified); experiment: SPR (Biacore T200), 37 C; TREM2 stalk antigen on anti-human IgG1 Fc chip, antibody in solution
T5 construct: domain: stalk
T5 chain: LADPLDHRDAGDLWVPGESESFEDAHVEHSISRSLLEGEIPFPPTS
Description: (§1) Forty-six rat anti-human antibodies were tested for binding affinity to the hTREM2 and cynomolgus TREM2 stalk. Antibody binding affinities for hTREM2 stalk and cynomolgus TREM2 stalk were measured by surface plasmon resonance (SPR) using a Biacore™ T200 apparatus. TREM2 stalk antigens (human or cynomolgus) were immobilized on anti-human IgG1 Fc Biacore™ chips and anti-TREM2 antibody clones were bound to immobilized TREM2 at 37° C. Binding affinities, KD (nM) were measured and recorded.
(§2) Several antibodies were selected for binding measurements against cynomolgus TREM2 stalk. […] These four antibodies are referred to collectively below as the “3.10C2 group” of antibodies.

[6] = molecular target: T6, hTREM2 stalk antigen (human, UniProt Q9NZC2 129-174); experiment: as above
T6 construct: also called human TREM2 stalk
T6 chain: T5 chain with V15F
Description: as §1, §2

[7] = molecular target: T7, hTREM2 stalk peptide residues 129-175 (human, biotinylated); experiment: ELISA: biotinylated peptide captured on streptavidin plate, antibody detected with anti-mouse IgG-HRP
T7 construct: also called human TREM2 stalk peptide
T7 peptide: T5 chain with V15F
Excerpt: (§3) The antibody epitopes were mapped to the stalk region of human TREM2 using enzyme-linked immunosorbent assay (ELISA). Overlapping biotinylated peptides were captured in ELISA plates coated with streptavidin. The binding of antibodies to peptides was detected with an anti-mouse IgG conjugated to horseradish peroxidase.

[8] = molecular target: T8, hTREM2 stalk peptide 151-165 (human, also: biotinylated (position not given here)); experiment: as above
T8 peptide: EDAHVEHSISRSLLE
Excerpt: as §3

[9] = molecular target: T9, 139-158 (biotinylated (site not given)); experiment: as above
T9 construct: member of the group m13
T9 peptide: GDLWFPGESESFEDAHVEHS
Excerpt: as §3

[10] = molecular target: T3, 159-175; experiment: as above
Excerpt: as §3

[11] = molecular target: T10, hTREM2 stalk peptide 149-168 (human, biotinylated); experiment: as above
T10 peptide: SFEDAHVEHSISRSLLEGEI
Excerpt: as §3

[12] = molecular target: T11, 152-161 (also: biotinylated (site not given here)); experiment: as above
T11 construct: member of the group m13
T11 peptide: DAHVEHSISR
Excerpt: as §3

[13] = molecular target: T12, hTREM2 stalk peptide 146-161 (human, also: biotinylated (site not given here)); experiment: as above
T12 peptide: ESESFEDAHVEHSISR
Excerpt: as §3

[14] = molecular target: T13, 155-169 (also: biotinylated (site not given here)); experiment: as above
T13 construct: member of the group m13
T13 peptide: VEHSISRSLLEGEIP
Excerpt: as §3

[15] = molecular target: T14, hTREM2 stalk peptide 146-169 (human, biotinylated); experiment: as above
T14 peptide: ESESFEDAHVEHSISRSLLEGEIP
Excerpt: as §3

[16] = molecular target: T15, 154-164 (also: biotinylated (site not given here)); experiment: as above
T15 construct: member of the group m13; also called hTREM2 stalk 154-164
T15 peptide: HVEHSISRSLL
Excerpt: as §3

[17] = molecular target: T16, 129-148 (biotinylated (site not given)); experiment: as above
T16 construct: member of the group m13
T16 peptide: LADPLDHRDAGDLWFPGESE
Excerpt: as §3

- binding result [1]: no binding
B7: rat 3.27H7 mIgG2a LALAPG (antibody, V domains shown)
VH: EVQLVETGGSLVQPGGSLKLTCATSGFPFSNVWLHWIRRSPEKQLEWVAQIKARSDNYATYYAESVKGRFIVSRDDSKTTIYLQMNNLKEEDTAIYYCTGLDYWGQGVMVTVSS
VL: DVVLTQAPLSVSVTPGESASISCRSSRSLLTSKGITSLYWYLQKPGMSPHLLIYRMSNLASGIPDRFSGSGSETDFTLKISEVEPEDVGVYYCAQFLVYPYTFGAGTKLELK
notes: Mouse IgG2a LALAPG constant region

- binding result [1]: no binding
B10: rat 3.50G1 mIgG2a LALAPG (antibody, V domains shown)
VH: EVQLVETGGSLVQPGKSLKLTCATSGFPFSNVWMHWVRQSPEKQLEWIAHIKAKSDNYATYYAESVKGRFTISRDDSKTSIYLQMNSLKDDDTAIYYCTGLDYWGQGVMVTVSS
VL: DTVLTQAPLSVSVTPGESASISCRSNKSLLGIRDITSLYWFLQKPGKSPQLLIYRMSNLASGVPDRFSGSGSETDFTLKISEVETEDVGVYYCAQFLRYPYTFGPGTKLELQ
notes: as for B7

- binding result [1]: no binding
- EC50, Jurkat NFAT luciferase reporter cells [2]: 280 ng/mL
B11: rat 3.10C2 mIgG2a LALAPG (antibody, V domains shown)
VH: B10 VH with D90E
VL: B10 VL with V11L, N26S, I32V, F41Y, Q112K
notes: also called Rat 3.10C2 mIgG1a LALAPG

More lines, now with the values behind:

B1: rat Para.09- LC 3.27H7 mIgG2a LALAPG (antibody, V domains shown)
VH: EVQLVETGGSLVQPGKSLRLTCATSGFPFSNVWLHWVRQSPEKHPEWVAHIKAKSDNYATYYAESVKGRFTISRDDSKSSVFLQMNSLKEEDTAIYYCTDILEYWGQGTLVTVSS
VL: DVVLTQAPLSVSVTPGESASISCRSSRSLLTSKGITSLYWYLQKPGMSPHLLIYRMSNLASGIPDRFSGSGSETDFTLKISEVEPEDVGVYYCAQFLVYPYTFGAGTKLELKR
notes: Mouse IgG2a LALAPG constant region; also called Rat para.09 mIgG2a LALAPG; Para.09. mIgG2a LALAPG
- binding result [1]: no binding
- EC50, Jurkat NFAT luciferase reporter cells [2]: 40 ng/mL

B2: Para.09 IgG with the 3.27H7 light chain (antibody, V domains shown)
VH: B1 VH
VL: B7 VL
notes: also called rat Para.09; Para.09-L27H7
- binding result [3]: no binding
- Kd [4]: 0.011 nM
- koff [4]: 2.1e-05 s⁻¹
- kon [4]: 2e+06 M⁻¹ s⁻¹

B3: Para.09 IgG with the 3.18E5 light chain (antibody, V domains shown)
VH: B1 VH
VL: B10 VL with F41Y, Q112K
- binding result [3]: no binding

B4: Para.09 IgG with the 3.50G1 light chain (antibody, V domains shown)
VH: B1 VH
VL: B10 VL
- binding result [3]: no binding

B5: Para.09 IgG with the 3.10C2 light chain (antibody, V domains shown)
VH: B1 VH
VL: B10 VL with V11L, N26S, I32V, F41Y, Q112K
- binding result [3]: no binding

B6: 3.27H7 (rat anti-human TREM2 antibody) (antibody, V domains shown)
VH: B7 VH
VL: B7 VL
notes: Whole IgG
- Kd [5]: 0.26 nM
- Kd [6]: 0.22 nM

B8: rat 3.18E5 mIgG2a LALAPG (antibody, V domains shown)
VH: B10 VH with S80T, D90E, D91A
VL: B10 VL with F41Y, Q112K
notes: as for B7
- binding result [1]: no binding

B9: 3.18E5 (rat anti-human TREM2 antibody) (antibody, IgG2a, V domains shown)
VH: B10 VH with S80T, D90E, D91A
VL: B10 VL with F41Y, Q112K
notes: Whole IgG
- Kd [5]: 0.3 nM
- Kd [6]: 0.26 nM
- A620 absorbance (ELISA) [7]: 1.65 A620
- A620 absorbance (ELISA) [8]: 2.42 A620
- A620 absorbance (ELISA) [9]: 0.51 A620
- A620 absorbance (ELISA) [10]: 0.07 A620
- A620 absorbance (ELISA) [11]: 1.46 A620
- A620 absorbance (ELISA) [12]: 0.15 A620
- A620 absorbance (ELISA) [13]: 2.89 A620
- A620 absorbance (ELISA) [14]: 0.14 A620
- A620 absorbance (ELISA) [15]: 1.48 A620
- A620 absorbance (ELISA) [16]: 0.4 A620
- A620 absorbance (ELISA) [17]: 0.28 A620
